Experimental data taken from the supplement of paper PMC9112550, “Optimization of the antimicrobial peptide Bac7 by deep mutational scanning” (BMC Biology, 2022).
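Note: peptides expressed intracellularly from a pBAD plasmid library in pooled LB shake-flask culture, induced with 0.3% L-arabinose, DNA abundance read by NGS, three biological replicates, DESeq2 with apeglm shrinkage.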

What follows are sequences tested on Escherichia coli TOP10 (assay: shrunken log2 fold change of peptide-encoding DNA abundance (4.5 h post-induction vs induction); higher = less antimicrobial activity (less host growth inhibition)). Details: time post-induction: 4.5 h; library: site-saturation at positions 5, 18, 19, 20.
RRIRERPPRLPRPRPRPKKHPRP was tested, and the “shrunken log2 fold change” value was -0.55.
In the case of RRIRMRPPRLPRPRPRPSVWPRP, the “shrunken log2 fold change” value is reported as 0.275.
For RRIRGRPPRLPRPRPRPNKTPRP, the “shrunken log2 fold change” value was -0.0264.
For RRIRWRPPRLPRPRPRPNEQPRP, the “shrunken log2 fold change” value was -0.00804.
With RRIRQRPPRLPRPRPRPGECPRP the “shrunken log2 fold change” value was -0.0823.
In the case of RRIRERPPRLPRPRPRPNVSPRP, the “shrunken log2 fold change” value is reported as -0.00968.
RRIRYRPPRLPRPRPRPMGRPRP was tested, and the “shrunken log2 fold change” value was -0.117.
RRIRRRPPRLPRPRPRPYCHPRP was tested, and the “shrunken log2 fold change” value was -0.792.
RRIRDRPPRLPRPRPRPYWYPRP was tested, and the “shrunken log2 fold change” value was 0.00534.
With RRIRMRPPRLPRPRPRPSKLPRP the “shrunken log2 fold change” value was -0.0679.
RRIRYRPPRLPRPRPRPRSGPRP was tested, and the “shrunken log2 fold change” value was -0.0667.
RRIRLRPPRLPRPRPRPCLEPRP was tested, and the “shrunken log2 fold change” value was -0.052.
With RRIRLRPPRLPRPRPRPYYFPRP the “shrunken log2 fold change” value was -0.767.
For RRIRPRPPRLPRPRPRPNFWPRP, the “shrunken log2 fold change” value was 0.153.
For RRIRSRPPRLPRPRPRPYPIPRP, the “shrunken log2 fold change” value was -0.356.
In the case of RRIRNRPPRLPRPRPRPGTYPRP, the “shrunken log2 fold change” value is reported as -0.0105.
With RRIRFRPPRLPRPRPRPAGRPRP the “shrunken log2 fold change” value was 0.294.
For RRIRRRPPRLPRPRPRPLPRPRP, the “shrunken log2 fold change” value was 0.748.
In the case of RRIRYRPPRLPRPRPRPTEKPRP, the “shrunken log2 fold change” value is reported as -0.0336.
With RRIRWRPPRLPRPRPRPNPSPRP the “shrunken log2 fold change” value was 0.219.
In the case of RRIRFRPPRLPRPRPRPCMSPRP, the “shrunken log2 fold change” value is reported as -0.0366.
RRIRIRPPRLPRPRPRPEYEPRP was tested, and the “shrunken log2 fold change” value was -0.0111.
For RRIRYRPPRLPRPRPRPWSYPRP, the “shrunken log2 fold change” value was -0.23.
In the case of RRIRVRPPRLPRPRPRPITEPRP, the “shrunken log2 fold change” value is reported as -0.0116.
With RRIRPRPPRLPRPRPRPGHNPRP the “shrunken log2 fold change” value was -0.133.
RRIRCRPPRLPRPRPRPLWNPRP was tested, and the “shrunken log2 fold change” value was -0.208.
With RRIRHRPPRLPRPRPRPCCWPRP the “shrunken log2 fold change” value was 0.015.
RRIRSRPPRLPRPRPRPNFFPRP was tested, and the “shrunken log2 fold change” value was 0.179.
With RRIRPRPPRLPRPRPRPVPIPRP the “shrunken log2 fold change” value was 0.0844.
In the case of RRIRDRPPRLPRPRPRPIQYPRP, the “shrunken log2 fold change” value is reported as -0.0088.
RRIRNRPPRLPRPRPRPWGFPRP was tested, and the “shrunken log2 fold change” value was -0.103.
RRIRNRPPRLPRPRPRPRFKPRP was tested, and the “shrunken log2 fold change” value was 0.0387.
RRIRCRPPRLPRPRPRPGQTPRP was tested, and the “shrunken log2 fold change” value was 0.0466.
RRIRLRPPRLPRPRPRPYCEPRP was tested, and the “shrunken log2 fold change” value was -0.135.
With RRIRLRPPRLPRPRPRPVREPRP the “shrunken log2 fold change” value was 0.185.
For RRIRDRPPRLPRPRPRPGMTPRP, the “shrunken log2 fold change” value was 0.0654.
For RRIRKRPPRLPRPRPRPCDCPRP, the “shrunken log2 fold change” value was -0.0743.
In the case of RRIRQRPPRLPRPRPRPLCKPRP, the “shrunken log2 fold change” value is reported as -0.406.
RRIRNRPPRLPRPRPRPFRHPRP was tested, and the “shrunken log2 fold change” value was -0.727.
With RRIRRRPPRLPRPRPRPVPIPRP the “shrunken log2 fold change” value was 0.137.
For RRIRSRPPRLPRPRPRPTKYPRP, the “shrunken log2 fold change” value was -0.52.
With RRIRLRPPRLPRPRPRPDRRPRP the “shrunken log2 fold change” value was 0.0766.
With RRIRWRPPRLPRPRPRPAVSPRP the “shrunken log2 fold change” value was 0.127.
In the case of RRIRERPPRLPRPRPRPVKVPRP, the “shrunken log2 fold change” value is reported as -0.205.
In the case of RRIRSRPPRLPRPRPRPCGPPRP, the “shrunken log2 fold change” value is reported as 0.118.
In the case of RRIRNRPPRLPRPRPRPDQAPRP, the “shrunken log2 fold change” value is reported as -0.01.
RRIRKRPPRLPRPRPRPYSIPRP was tested, and the “shrunken log2 fold change” value was -0.182.
In the case of RRIRFRPPRLPRPRPRPTAAPRP, the “shrunken log2 fold change” value is reported as 0.569.
In the case of RRIRVRPPRLPRPRPRPATKPRP, the “shrunken log2 fold change” value is reported as 0.153.
With RRIRLRPPRLPRPRPRPARLPRP the “shrunken log2 fold change” value was 0.647.
For RRIRMRPPRLPRPRPRPGGVPRP, the “shrunken log2 fold change” value was 0.952.
RRIRVRPPRLPRPRPRPNAKPRP was tested, and the “shrunken log2 fold change” value was 0.328.
With RRIRKRPPRLPRPRPRPGLSPRP the “shrunken log2 fold change” value was 0.0644.
With RRIRARPPRLPRPRPRPKAGPRP the “shrunken log2 fold change” value was 0.213.
For RRIRPRPPRLPRPRPRPHCNPRP, the “shrunken log2 fold change” value was -0.52.
With RRIRHRPPRLPRPRPRPGTFPRP the “shrunken log2 fold change” value was -0.132.
RRIRFRPPRLPRPRPRPAVSPRP was tested, and the “shrunken log2 fold change” value was -0.108.
RRIRGRPPRLPRPRPRPGIIPRP was tested, and the “shrunken log2 fold change” value was 0.0469.
With RRIRDRPPRLPRPRPRPESNPRP the “shrunken log2 fold change” value was 0.892.
RRIRDRPPRLPRPRPRPQVYPRP was tested, and the “shrunken log2 fold change” value was 0.175.
In the case of RRIRIRPPRLPRPRPRPEGMPRP, the “shrunken log2 fold change” value is reported as -0.0787.
In the case of RRIRSRPPRLPRPRPRPDLQPRP, the “shrunken log2 fold change” value is reported as -0.193.
With RRIRCRPPRLPRPRPRPREEPRP the “shrunken log2 fold change” value was 1.43.
In the case of RRIRMRPPRLPRPRPRPSRRPRP, the “shrunken log2 fold change” value is reported as 0.189.
With RRIRMRPPRLPRPRPRPNEQPRP the “shrunken log2 fold change” value was 0.37.
With RRIRERPPRLPRPRPRPSMFPRP the “shrunken log2 fold change” value was -0.723.
For RRIRHRPPRLPRPRPRPFCTPRP, the “shrunken log2 fold change” value was -0.294.
RRIRWRPPRLPRPRPRPHWRPRP was tested, and the “shrunken log2 fold change” value was 0.329.
In the case of RRIRERPPRLPRPRPRPYHKPRP, the “shrunken log2 fold change” value is reported as -0.804.
For RRIRWRPPRLPRPRPRPVEHPRP, the “shrunken log2 fold change” value was -0.287.
RRIRWRPPRLPRPRPRPHSFPRP was tested, and the “shrunken log2 fold change” value was -0.266.
For RRIRMRPPRLPRPRPRPDLAPRP, the “shrunken log2 fold change” value was 1.4.
In the case of RRIRVRPPRLPRPRPRPDLQPRP, the “shrunken log2 fold change” value is reported as 0.00798.
RRIRVRPPRLPRPRPRPRGMPRP was tested, and the “shrunken log2 fold change” value was 0.274.
For RRIRHRPPRLPRPRPRPNHIPRP, the “shrunken log2 fold change” value was -0.844.
